Results reported in article PMC9663306.

Assay: flow cytometry of surface IL-17RC, ST2 cells
Details: glycan lost; control: SF-IL-17RCWT

B1: IL-17RC: SF-IL-17RCMutE (protein)
parent chain: MPVSWFLLSLALGRNPVVVSLERLMEPQDTARCSLGLSCHLWDGDVLCLPGSLQSAPGPVLVPTRLQTELVLRCPQKTDCALCVRVVVHLAVHGHWAEPEEAGKSDSELQESRNASLQAQVVLSFQAYPIARCALLEVQVPADLVQPGQSVGSAVFDCFEASLGAEVQIWSYTKPRYQKELNLTQQLPDCRGLEVRDSIQSCWVLPWLNVSTDGDNVLLTLDVSEEQDFSFLLYLRPVPDALKSLWYKNLTGPQNITLNHTDLVPCLCIQVWSLEPDSERVEFCPFREDPGAHRNLWHIARLRVLSPGVWQLDAPCCLPGKVTLCWQAPDQSPCQPLVPPVPQKNATVNEPQDFQLVAGHPNLCVQVSTWEKVQLQACLWADSLGPFKDDMLLVEMKTGLNNTSVCALEPSGCTPLPSMASTRAARLGEELLQDFRSHQCMQLWNDDNMGSLWACPMDKYIHRRWVLVWLACLLLAAALFFFLLLKKDRRKAARGSRTALLLHSADGAGYERLVGALASALSQMPLRVAVDLWSRRELSAHGALAWFHHQRRRILQEGGVVILLFSPAAVAQCQQWLQLQTVEPGPHDALAAWLSCVLPDFLQGRATGRYVGVYFDGLLHPDSVPSPFRVAPLFSLPSQLPAFLDALQGGCSTSAGRPADRVERVTQALRSALDSCTSSSEAPGCCEEWDLGPCTTLE
localisation_or_trafficking: decreases
